Data on one molecule can be found in US12605469B2, “Tumor specific antibody conjugates and uses therefor” (The University of North Carolina at Charlotte, priority 2019, dated 2026).

The assay concerns the target T1, human MUC1, tumor-associated form (tMUC), on tumor cells and tumor tissue (human, UniProt P15941 24-1255, tumor-associated (aberrant) glycosylation, not specified further).
T1 construct: also called tMUC1; tumor-associated glycosylated MUC1
As to the kind of experiment: fluorescence microscopy of CAR T cells co-incubated with HPAFII cells.

T1 sequence (P15941 other isoform, or with tags, fused parts or gaps limits assumed): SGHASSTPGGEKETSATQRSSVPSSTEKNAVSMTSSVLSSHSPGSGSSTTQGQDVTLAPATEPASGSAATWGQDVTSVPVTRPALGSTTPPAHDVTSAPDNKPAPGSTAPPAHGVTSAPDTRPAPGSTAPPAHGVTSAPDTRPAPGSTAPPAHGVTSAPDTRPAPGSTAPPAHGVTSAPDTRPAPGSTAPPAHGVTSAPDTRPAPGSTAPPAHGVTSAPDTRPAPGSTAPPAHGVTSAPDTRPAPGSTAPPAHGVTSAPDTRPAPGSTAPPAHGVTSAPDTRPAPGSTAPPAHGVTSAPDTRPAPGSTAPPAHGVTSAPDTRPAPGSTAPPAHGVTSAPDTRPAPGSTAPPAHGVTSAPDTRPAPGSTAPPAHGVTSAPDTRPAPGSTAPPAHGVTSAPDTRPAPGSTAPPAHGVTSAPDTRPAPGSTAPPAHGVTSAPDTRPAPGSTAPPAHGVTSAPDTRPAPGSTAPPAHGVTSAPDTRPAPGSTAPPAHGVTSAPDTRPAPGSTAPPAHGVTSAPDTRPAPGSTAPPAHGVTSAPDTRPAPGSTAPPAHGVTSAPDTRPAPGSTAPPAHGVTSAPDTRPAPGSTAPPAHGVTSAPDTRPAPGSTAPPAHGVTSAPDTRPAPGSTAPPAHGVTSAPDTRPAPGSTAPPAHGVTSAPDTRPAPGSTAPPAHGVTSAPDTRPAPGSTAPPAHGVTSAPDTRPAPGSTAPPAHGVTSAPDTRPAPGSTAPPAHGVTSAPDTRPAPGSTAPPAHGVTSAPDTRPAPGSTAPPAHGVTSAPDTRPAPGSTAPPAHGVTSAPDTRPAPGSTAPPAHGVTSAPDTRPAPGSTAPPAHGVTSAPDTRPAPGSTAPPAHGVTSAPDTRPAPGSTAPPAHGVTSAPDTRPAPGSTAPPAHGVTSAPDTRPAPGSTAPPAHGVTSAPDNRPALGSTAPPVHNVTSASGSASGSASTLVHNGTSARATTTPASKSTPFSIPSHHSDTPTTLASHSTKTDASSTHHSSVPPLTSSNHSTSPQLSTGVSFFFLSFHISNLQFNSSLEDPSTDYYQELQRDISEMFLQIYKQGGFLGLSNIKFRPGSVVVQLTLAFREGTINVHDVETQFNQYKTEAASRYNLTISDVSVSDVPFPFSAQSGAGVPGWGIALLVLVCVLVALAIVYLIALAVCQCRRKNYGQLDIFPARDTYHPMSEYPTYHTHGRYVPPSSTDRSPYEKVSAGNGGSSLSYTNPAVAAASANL

B1: TAB-28z-mKATE chimeric antigen receptor (2nd generation), on T cells (receptor)
chain: EVQLQQSGGERATPGASVKMSCKTSGYTFTNYWMHWVKQRPGQGLEWIGYINPSSGYTQYNQKFKDKATLTADKSSSTAYIQLSSLTSEDSAVYYCSTYYGDYLFPYWGQGTLVTVSAGGGGSGGGGSGGGGSDVLMTQTPLSLPVSLGDQASISCRSSQDIVYGNGNTYLEWYLQKPGQSPKLLIYKVSNRFSGVPDRFSGSGSGTDFTLKISRVEAEDLGVYYCFQGSHVPYTFGGGTKLEIKRAAAIEVEQKLISEEDLLDNEKSNGTIIHVKGKHLCPSPLFPGPSKPFWVLVVVGGVLACYSLLVTVAFIIFWVRSKRSRLLHSDYMNMTPRRPGPTRKHYQPYAPPRDFAAYRSRVKFSRSADAPAYQQGQNQLYNELNLGRREEYDVLDKRRGRDPEMGGKPRRKNPQEGLYNELQKDKMAEAYSEIGMKGERRRGKGHDGLYQGLSTATKDTYDALHMQALPPRARGAAAGAGGAGRMVSELIKENMHMKLYMEGTVNNHHFKCTSEGEGKPYEGTQTMRIKAVEGGPLPFAFDILATSFMYGSKTFINHTQGIPDFFKQSFPEGFTWERVTTYEDGGVLTATQDTSLQDGCLIYNVKIRGVNFPSNGPVMQKKTLGWEASTETLYPADGGLEGRADMALKLVGGGHLICNLKTTYRSKKPAKNLKMPGVYYVDRRLERIKEADKETYVEQHEVAVARYCDLPSKLGHR
notes: Expressed on the surface of T cells or Jurkat cells; also called CAR-mKATE; CAR-mKate fusion protein
For B1, the binding result was “binds”.
